This data set has as its target complement C5 (full length) (Homo sapiens) (UniProt P01031). As to the kind of experiment: filter. The conditions noted are these: dRmY: A,G deoxy; C,U 2'-OMe; dot blot, DPBS.

Sequence of complement C5 (full length) (Homo sapiens) (P01031 whole entry): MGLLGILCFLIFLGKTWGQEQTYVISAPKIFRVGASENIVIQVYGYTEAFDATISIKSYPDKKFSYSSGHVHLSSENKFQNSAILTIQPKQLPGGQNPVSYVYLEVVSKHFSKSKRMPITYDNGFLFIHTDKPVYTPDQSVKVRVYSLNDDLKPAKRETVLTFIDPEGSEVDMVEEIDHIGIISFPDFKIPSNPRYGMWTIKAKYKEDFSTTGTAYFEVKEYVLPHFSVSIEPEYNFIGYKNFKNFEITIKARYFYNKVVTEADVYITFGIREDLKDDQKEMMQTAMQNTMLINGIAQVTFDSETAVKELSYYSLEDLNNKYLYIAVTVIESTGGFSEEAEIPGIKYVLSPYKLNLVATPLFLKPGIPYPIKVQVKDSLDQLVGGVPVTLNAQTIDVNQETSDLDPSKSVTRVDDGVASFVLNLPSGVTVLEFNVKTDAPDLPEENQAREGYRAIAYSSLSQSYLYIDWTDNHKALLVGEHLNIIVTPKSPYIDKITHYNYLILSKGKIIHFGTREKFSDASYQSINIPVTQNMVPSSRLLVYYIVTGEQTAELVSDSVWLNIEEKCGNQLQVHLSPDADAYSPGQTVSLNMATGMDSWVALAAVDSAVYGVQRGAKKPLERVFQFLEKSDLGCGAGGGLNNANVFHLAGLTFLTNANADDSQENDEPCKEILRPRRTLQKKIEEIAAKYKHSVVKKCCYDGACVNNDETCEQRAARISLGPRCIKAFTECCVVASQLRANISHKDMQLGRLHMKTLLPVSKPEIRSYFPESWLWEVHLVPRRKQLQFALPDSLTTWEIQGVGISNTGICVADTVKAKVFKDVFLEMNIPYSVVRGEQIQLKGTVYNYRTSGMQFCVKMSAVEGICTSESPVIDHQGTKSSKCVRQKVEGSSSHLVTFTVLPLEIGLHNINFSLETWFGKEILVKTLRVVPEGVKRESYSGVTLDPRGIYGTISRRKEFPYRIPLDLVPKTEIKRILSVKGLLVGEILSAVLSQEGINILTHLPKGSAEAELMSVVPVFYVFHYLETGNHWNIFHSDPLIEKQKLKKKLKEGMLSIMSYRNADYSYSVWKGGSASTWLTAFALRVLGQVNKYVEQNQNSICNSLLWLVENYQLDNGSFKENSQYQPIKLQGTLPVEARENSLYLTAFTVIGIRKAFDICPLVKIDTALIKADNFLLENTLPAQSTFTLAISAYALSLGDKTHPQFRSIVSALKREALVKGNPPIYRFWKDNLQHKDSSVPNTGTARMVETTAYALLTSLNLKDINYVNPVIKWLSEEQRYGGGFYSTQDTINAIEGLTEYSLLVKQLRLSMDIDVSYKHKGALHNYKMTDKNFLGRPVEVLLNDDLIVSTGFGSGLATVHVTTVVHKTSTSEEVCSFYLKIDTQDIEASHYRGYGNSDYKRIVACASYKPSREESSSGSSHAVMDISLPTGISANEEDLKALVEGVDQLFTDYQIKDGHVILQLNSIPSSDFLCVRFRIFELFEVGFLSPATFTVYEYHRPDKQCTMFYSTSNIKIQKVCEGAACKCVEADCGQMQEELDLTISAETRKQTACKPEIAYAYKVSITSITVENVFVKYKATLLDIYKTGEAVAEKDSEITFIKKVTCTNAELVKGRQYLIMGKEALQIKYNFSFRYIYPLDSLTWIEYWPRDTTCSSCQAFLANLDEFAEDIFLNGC

Broadly, the Kd is the equilibrium constant for the complex coming apart. A low value points to tighter binding. In the case of “GGGAGAGGAGAGAACGUUCUACCUUGGUUUGGCNCAGGCAUANAUACGCACGGGUCGAUCGGUUACGACUAGCAU [doped clone SEQ 96]”, the dissociation constant Kd was 84 nM.

These data come from patent US20090269356.
